Experimental data: patent publication US20130315928A1 (published 2013)

Columns and labels:
[1] = target: T1, ovine luteinizing hormone (ovine, UniProt P01218 25-120; P01231 21-141); assay: cell-based or functional assay
[2] = target: T2, ovine follicle-stimulating hormone (ovine, UniProt P01218 25-120; P01227 20-129); assay: cell-based or functional assay
[3] = target: T3, equine choriogonadotropin (eCG) or PMSG (equine, UniProt P01220 25-120; P08751 21-169); assay: ELISA on adsorbed commercial eCG
T3 construct: They are written as one protein; also called commercial eCG (Synchro Part, CEVA); purified eCG (6000 IU/mg)
Method: (§1) After washing five times, a secondary antibody (peroxidase-coupled mouse anti-IgM, Jackson Laboratories) was incubated for 1 h at 37° C. (100 μl/well). After washing five times, the peroxidase is developed with TMB (100 μl/well), for 30 min at room temperature and then stopped with 1M H₂SO₄ (50 μl/well).
(§2) In the same way, the antibodies were evaluated on the commercial eCG (Synchro Part, CEVA, Libourne, France) used in treatments for induction of ovulation in sheep and goats. An isotypic control (IgM directed against another type of antigen very remote from the gonadotropic hormones). Each antibody was incubated at a concentration of 10 μg/ml and 1 μg/ml.

[4] = target: T3, equine choriogonadotropin (eCG) or PMSG; assay: ELISA on commercial eCG, antibody at 1 µg/ml
Method: as §1, §2

[5] = target: T3, equine choriogonadotropin (eCG) or PMSG; assay: ELISA on commercial eCG, antibody at 10 µg/ml
Method: as §1, §2

[6] = target: porcine luteinizing hormone (porcine, UniProt P01219 25-120; P01232 21-141); assay: ELISA, hormone adsorbed at 2 µg/ml, anti-IgM peroxidase; relative to oLH
Method: as §1

[7] = target: bovine luteinizing hormone (bovine, UniProt P01217 25-120; P04651 21-141); assay: as above
Method: as §1

[8] = target: T4, human chorionic gonadotropin (human, UniProt P01215 25-116; P0DN86 21-165); assay: as above
T4 construct: Alpha/beta heterodimer; also called hCG
Method: as §1

[9] = target: porcine follicle-stimulating hormone (porcine, UniProt P01219 25-120; P01228 21-129); assay: ELISA, hormone adsorbed at 2 µg/ml, anti-IgM peroxidase; relative to oFSH
Method: as §1

[10] = target: bovine follicle-stimulating hormone (bovine, UniProt P01217 25-120; P04837 21-129); assay: as above
Method: as §1

[11] = target: T5, human follicle-stimulating hormone (human, UniProt P01215 25-116; P01225 19-129); assay: as above
T5 construct: Alpha/beta heterodimer; also called hFSH; human FSH
Method: as §1

[12] = target: T1, ovine luteinizing hormone; assay: ELISA, hormone adsorbed at 2 µg/ml, MAb at 0.1-1-10 µg/ml, anti-IgM peroxidase; oLH is the 100% reference
[13] = target: T2, ovine follicle-stimulating hormone; assay: ELISA, hormone adsorbed at 2 µg/ml, MAb at 0.1-1-10 µg/ml, anti-IgM peroxidase; oFSH is the 100% reference
[14] = target: T3, equine choriogonadotropin (eCG) or PMSG; assay: ELISA on purified eCG (6000 IU/mg)

T4 sequence (P01215 25-116, chain 1 of 2, other chains not shown): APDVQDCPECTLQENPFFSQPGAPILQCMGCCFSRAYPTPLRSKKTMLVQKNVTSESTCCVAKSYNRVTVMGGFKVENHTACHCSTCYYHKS
T5 sequence (P01215 25-116, chain 1 of 2): as the sequence (P01215 25-116, chain 1 of 2, other chains not shown) above
T5 sequence (P01225 19-129, chain 2 of 2): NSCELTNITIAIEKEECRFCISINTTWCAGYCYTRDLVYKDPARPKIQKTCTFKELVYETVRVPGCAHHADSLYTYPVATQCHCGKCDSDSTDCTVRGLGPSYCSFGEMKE
T3 sequence (P01220 25-120 limits assumed, chain 1 of 2): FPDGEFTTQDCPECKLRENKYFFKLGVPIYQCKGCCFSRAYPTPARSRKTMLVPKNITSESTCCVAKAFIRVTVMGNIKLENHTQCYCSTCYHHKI
T3 sequence (P08751 21-169 limits assumed, chain 2 of 2): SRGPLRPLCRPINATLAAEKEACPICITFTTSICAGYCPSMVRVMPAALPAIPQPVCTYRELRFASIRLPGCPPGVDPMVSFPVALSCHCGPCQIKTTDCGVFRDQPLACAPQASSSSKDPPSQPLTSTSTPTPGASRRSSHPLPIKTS

Row | potentiating effect on cAMP secretion (in vitro bioassay) [1] [%] | potentiating effect on cAMP secretion (in vitro bioassay) [2] [%] | percentage of cross reaction (OD hormone tested / OD ovine hormone x 100) [6] [%] | percentage of cross reaction (OD hormone tested / OD ovine hormone x 100) [7] [%] | percentage of cross reaction (OD hormone tested / OD ovine hormone x 100) [8] [%] | percentage of cross reaction (OD hormone tested / OD ovine hormone x 100) [9] [%] | percentage of cross reaction (OD hormone tested / OD ovine hormone x 100) [10] [%] | percentage of cross reaction (OD hormone tested / OD ovine hormone x 100) [11] [%] | percentage of cross reaction (OD hormone tested / OD ovine hormone x 100) [12] [%] | percentage of cross reaction (OD hormone tested / OD ovine hormone x 100) [13] [%] | Binder | binding result [3] | OD [4] [OD] | OD [5] [OD] | binding result [14]
1 | 150 | 150 | 170 | 121 | 72 | 100 | 460 | 100 | 100 | 100 | monoclonal antibody 9A4 A7 D3 (hybridoma CNCM I-4333) (antibody, V domains shown, Hybridoma antibody raised against ovine LH; The VL as determined begins KTQTTSS; also called MAb D3; IgM D3) VH: EVQLQESGAELVRPGTSVKISCKASGYTFTNYWLGWVKQRPGHGLEWIGDIYPGGGYTNYNEKFKGKATLTADTSSSTAYMQLSSLTSEDSAVYFCARTPLYGSSYGGFAYWGQGTLVTVSA VL: KTQTTSSLSASLGDRVTISCSASQGISNYLNWYQQKPDGTVKLLIYYTSSLHSGVPSRFSGSGSGTDYSLTISNLEPEDIATYYCQQYSKLPWTFGGGTKLEIK | no binding (tested: 10 µg/ml and 1 µg/ml) | 0.102 | 0.091 | 
2 | 150 | 150 | 168 | 122 | 97 | 137 | 430 | 100 | 100 | 100 | monoclonal antibody 9A4 D4 B6 (hybridoma CNCM I-4334) (antibody, V domains shown, Hybridoma antibody raised against ovine LH; also called MAb B6; IgM B6) VH: EVQLQQSGAELVRPGTSVKISCKASGYTFTNYWLGWVKQRPGHGLEWIGDIYPGGGYTNYNEKFKGKATLTADTSSSTAYMQLSSLTSEDSAVYFCARTPLYGSSYGGFAYWGQGTLVTVSA VL: DIVMTQATSSLSASLGDRVTISCSASQGISNYLNWYQQKPDGTVKLLIYYTSSLHSGVPSRFSGSGSGTDYSLTISNLEPEDIATYYCQQYSKLPWTFGGGTKLEIK | no binding (tested: 10 µg/ml and 1 µg/ml) | 0.078 | 0.088 | 
3 |  |  | 140 | 100 | 68 | 230 | 380 | 113 | 100 | 100 | monoclonal antibody 1A6 C4 G11 (hybridoma CNCM I-4332) (antibody, V domains shown, Hybridoma antibody raised against ovine LH; also called MAb G11; IgM G11) VH: EVKLQQSGAELVRPGTSVKISCKASGYTFTNYWLGWVKQRPGHGLEWIGDIYPGGGYTNYNEKFKGKATLTADTSSSTAYMQLSSLTSEDSAVYFCARTPLYGSSYGGFAYWGQGTLVTVSA VL: DIQMTQTTSSLSASLGDRVTISCSASQGISNYLNWYQQKPDGTVKLLIYYTSSLHSGVPSRFSGSGSGTDYSLTISNLEPEDIATYYCQQYSKLPWTFGGGTKLEIK |  | 0.088 | 0.09 | no binding
